{
  "source": "paper doi:10.1101/2023.02.02.526371",
  "about": "(bioRxiv, 2023)",
  "target": "T1, recombinant PIF3-GST (Arabidopsis thaliana, UniProt O80536 1-524)",
  "T1 sequence (looked up)": "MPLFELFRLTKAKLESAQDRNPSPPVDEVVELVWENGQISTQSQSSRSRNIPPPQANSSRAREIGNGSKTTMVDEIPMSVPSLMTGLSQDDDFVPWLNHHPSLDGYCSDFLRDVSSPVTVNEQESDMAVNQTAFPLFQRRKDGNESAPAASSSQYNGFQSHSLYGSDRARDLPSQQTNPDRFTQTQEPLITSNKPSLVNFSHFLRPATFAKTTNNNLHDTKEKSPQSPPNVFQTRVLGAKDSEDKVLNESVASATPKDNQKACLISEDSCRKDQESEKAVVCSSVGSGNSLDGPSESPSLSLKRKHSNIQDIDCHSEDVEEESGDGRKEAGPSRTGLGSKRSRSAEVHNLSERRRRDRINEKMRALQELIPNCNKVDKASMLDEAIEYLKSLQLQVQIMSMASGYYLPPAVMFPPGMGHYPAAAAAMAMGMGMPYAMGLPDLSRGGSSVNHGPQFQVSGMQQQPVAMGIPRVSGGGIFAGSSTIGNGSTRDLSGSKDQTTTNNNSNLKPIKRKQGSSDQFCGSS",
  "assay": "pull-down",
  "data": [
    {"binder": "His-tagged kinase domain of FER (518-816 amino acids, FER-KD) (domain or fragment) not shown", "values": [
      {"measurement": "binding result", "value": "binds"}
    ]}
  ]
}
